This note sets out measurements from US20140248303A1.

The target of experiment [1] is 37/67 laminin receptor (LR) (Homo sapiens (Human)) (UniProt P08865). As to the kind of experiment: cell-based or functional assay.
For experiment [2] the target is unchanged. As to the kind of experiment: adhesion of construct-labeled latex microspheres to fixed TNF-activated RBCEC6 cells.
The target in experiment [3] is native CbpA of S. pneumoniae Tigr4 / T4R (on bacteria or in pneumococcal lysate) (Streptococcus pneumoniae Tigr4 strain). As to the kind of experiment: cell-based or functional assay.
The target of experiment [4] is 37/67 laminin receptor (LR) (Homo sapiens (Human)) (UniProt P08865). Kind of experiment: adhesion of labeled latex microspheres to RBCEC6 cells.
In experiment [5] the target is full length CbpA (CbpA-NR12) (Streptococcus pneumoniae Tigr4 strain). Kind of experiment: competitive inhibition of rCbpA-coated latex beads binding to activated RBCEC6 cells by the LR peptide.

In turn, “CbpA P393G (as printed) expressed on a CbpA- S. pneumoniae strain” gave an adherence to endothelial cells of a CbpA- strain expressing the mutant, less than wild type CbpA in experiment [1] of 39 % less. In turn, CbpA-R1 showed a bead adherence to RBCEC6 cells, % (compared with full length CbpA-NR12 beads) in experiment [2] of 10%. In the case of “LMWWML palindromic sequence within the 161-180 laminin-binding domain (peptide)”, the bacterial adhesion to activated RBCEC6 cells, % of control in experiment [3] was 108 % of control.

Substance full length CbpA (CbpA-NR12) had a fold binding over control thioredoxin labeled beads in experiment [4] of 20 fold. As to “native CbpA of S. pneumoniae Tigr4 / T4R (on bacteria or in pneumococcal lysate)”, in experiment [1], the pneumococcal (T4R) adherence to activated RBCEC6 cells, inhibited by anti-LRP r711 was 54%; the pneumococcal (T4R) adherence to activated RBCEC6 cells, inhibited by laminin is 47%; the pneumococcal (T4R) invasion of activated RBCEC6 cells, inhibited by anti-LRP r711 is 31%; the pneumococcal (T4R) invasion of activated RBCEC6 cells, inhibited by laminin amounted to 36%. Turning to “peptide corresponding to amino acids 161-180 of the laminin receptor”, the adhesion of rCbpA-coated latex beads, % of control in experiment [5] was 93 % of control. Take “peptide corresponding to amino acids 263-282 of the laminin receptor”: the adherence of rCbpA-coated latex beads, % of control in experiment [5] is 38 % of control.
